{
  "source": "patent US20210228731A1",
  "about": "“ANTIBODY DRUG CONJUGATES FOR ABLATING HEMATOPOIETIC STEM CELLS” (NOVARTIS AG, priority 2018, published 2021)",
  "molecules": {"B1": {"name": "anti-cKIT Fab4 (HC-E152C): anti-cKIT Fab fragment with heavy chain E152C (Cys Fab HC SEQ ID NO: 136) (antibody)", "heavy": "QVQLQQSGPGLVKPSQTLSLTCAISGDSVSTNSAAWNWIRQSPSRGLEWLGRIYYRSQWLNDYAVSVKSRITINPDTSKNQFSLQLNSVTPEDTAVYYCARQLTYPYTVYHKALDVWGQGTLVTVSSASTKGPSVFPLAPSSKSTSGGTAALGCLVKDYFPCPVTVSWNSGALTSGVHTFPAVLQSSGLYSLSSVVTVPSSSLGTQTYICNVNHKPSNTKVDKRVEPKSCD", "modifications": "light chain not cited"}},
  "tested_on": "human peripheral blood HSC-derived mast cells",
  "assay": "In vitro human mast cell degranulation assay (beta-hexosaminidase release)",
  "assay_type": "cell-based",
  "settings": "test agents 0.006-25 nM cross-linked with antibody specific for the Fab portion; absence of SCF",
  "description": "Mature mast cells were generated using CD34+ progenitors from mobilized peripheral blood. CD34+ cells were cultured in StemSpan SFEM (StemCell Technologies) supplemented with recombinant human stem cell factor (rhSCF, 50 ng/ml, Gibco), recombinant human interleukin 6 (rhIL-6, 50 ng/ml, Gibco), recombinant human IL-3 (30 ng/ml, Peprotech), GlutaMAX ([…], Gibco), penicillin (100 U/ml, Hyclone) and streptomycin (100 μg/ml, Hyclone). Recombinant hll-3 was added only during the first week of the culture. After the third week, half of the medium was replaced weekly with fresh medium containing rhIL-6 (50 ng/ml) and rhSCF (50 ng/ml). Mature mast cell purity was evaluated by surface staining of high-affinity IgE receptor (FCεRI, eBioscience) and CD117 (BD). […]\nThe derived mast cells were washed once to remove SCF, and the required amount of cells was incubated overnight in mast cell medium containing rhIL-6 (50 ng/ml) with or without rhSCF (50 ng/ml). […] During this incubation, p-nitro-N-acetyl-pi-D-gluosamine (pNAG, Sigma) buffer was prepared by sonicating 3.5 mg/ml of pNAG in citrate buffer (40 mM citric acid, 20 mM sodium phosphate dibasic, pH 4.5). β-hexosaminidase release was measured by mixing 20 μl of cell supernatant with 40 μl of pNAG solution in a flat-bottom 384-well plate. […] Absorbance was read using a plate reader at λ=405 nm with reference filter at λ=620 nm. […]",
  "data": [
    {"molecule": "B1", "values": [
      {"measurement": "mast cell degranulation (beta-hexosaminidase release) when cross-linked", "result": "no mast cell degranulation was triggered"}
    ]}
  ]
}
